Two variants from IntAct's records for PubMed 29997244 can be followed below.

B1: DnaJ homolog subfamily C member 5 (Homo sapiens), Q9H3Z4 (parent)
chain: MADQRQRSLSTSGESLYHVLGLDKNATSDDIKKSYRKLALKYHPDKNPDNPEAADKFKEINNAHAILTDATKRNIYDKYGSLGLYVAEQFGEENVNTYFVLSSWWAKALFVFCGLLTCCYCCCCLCCCFNCCCGKCKPKAPEGEETEFYVSPEDLEAQLQSDEREATDTPIVIQPASATETTQLTADSHPSYHTDGFN
partner: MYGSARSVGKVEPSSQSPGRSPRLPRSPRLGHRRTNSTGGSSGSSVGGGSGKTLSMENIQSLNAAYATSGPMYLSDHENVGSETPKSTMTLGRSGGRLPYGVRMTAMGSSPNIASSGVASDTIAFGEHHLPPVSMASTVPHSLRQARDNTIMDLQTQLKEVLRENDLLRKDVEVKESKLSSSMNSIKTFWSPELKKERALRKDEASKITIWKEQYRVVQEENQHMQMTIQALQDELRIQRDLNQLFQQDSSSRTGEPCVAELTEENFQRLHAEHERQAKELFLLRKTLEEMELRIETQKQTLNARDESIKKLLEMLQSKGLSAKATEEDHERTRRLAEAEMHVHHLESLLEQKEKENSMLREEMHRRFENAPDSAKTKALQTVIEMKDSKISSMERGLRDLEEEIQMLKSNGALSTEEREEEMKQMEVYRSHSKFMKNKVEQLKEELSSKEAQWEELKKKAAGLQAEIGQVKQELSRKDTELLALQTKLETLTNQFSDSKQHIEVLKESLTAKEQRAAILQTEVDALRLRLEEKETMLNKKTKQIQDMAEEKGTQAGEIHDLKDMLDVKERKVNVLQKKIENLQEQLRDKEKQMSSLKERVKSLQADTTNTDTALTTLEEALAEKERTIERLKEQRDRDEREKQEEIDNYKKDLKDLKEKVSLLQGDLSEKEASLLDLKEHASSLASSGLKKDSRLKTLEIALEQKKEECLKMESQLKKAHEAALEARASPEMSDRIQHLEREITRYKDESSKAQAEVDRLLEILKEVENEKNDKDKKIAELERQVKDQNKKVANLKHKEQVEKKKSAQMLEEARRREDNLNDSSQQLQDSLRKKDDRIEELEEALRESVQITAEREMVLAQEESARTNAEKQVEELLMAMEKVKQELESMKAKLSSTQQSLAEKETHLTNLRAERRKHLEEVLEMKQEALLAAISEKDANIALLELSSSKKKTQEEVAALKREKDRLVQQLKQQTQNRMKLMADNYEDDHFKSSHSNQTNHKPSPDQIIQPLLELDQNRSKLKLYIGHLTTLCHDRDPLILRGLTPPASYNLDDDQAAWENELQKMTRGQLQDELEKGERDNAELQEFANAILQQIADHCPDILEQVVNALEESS
B2: DnaJ homolog subfamily C member 5 (Homo sapiens), Q9H3Z4 (parent)
chain: B1 chain
partner: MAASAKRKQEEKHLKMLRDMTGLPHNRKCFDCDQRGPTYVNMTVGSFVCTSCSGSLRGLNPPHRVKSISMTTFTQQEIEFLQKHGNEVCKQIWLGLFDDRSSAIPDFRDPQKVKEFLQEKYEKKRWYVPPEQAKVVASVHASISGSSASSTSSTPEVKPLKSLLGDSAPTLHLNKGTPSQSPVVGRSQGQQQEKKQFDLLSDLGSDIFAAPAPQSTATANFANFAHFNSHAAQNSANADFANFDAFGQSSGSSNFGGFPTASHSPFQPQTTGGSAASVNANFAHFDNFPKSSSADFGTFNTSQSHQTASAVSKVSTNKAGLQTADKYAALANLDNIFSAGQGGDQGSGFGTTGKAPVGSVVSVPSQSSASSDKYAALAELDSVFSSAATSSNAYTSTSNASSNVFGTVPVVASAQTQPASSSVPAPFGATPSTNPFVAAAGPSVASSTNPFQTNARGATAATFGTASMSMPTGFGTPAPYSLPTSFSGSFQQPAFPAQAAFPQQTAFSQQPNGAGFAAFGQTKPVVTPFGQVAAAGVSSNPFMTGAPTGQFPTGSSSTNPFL

In the first test the parent is B1. The settings on record: with rb6i2_human ERC1, Q8IUD2.
On to MADQRQRSLSTSGESLYHVLGLDKNATSDDIKKSYRKLALKYHPDKNPDNPEAADKFKEINNAHAILTDATKRNIYDKYGSLGLYVAEQFGEENVNTYFVLSSWWAKALFVFCGRLTCCYCCCCLCCCFNCCCGKCKPKAPEGEETEFYVSPEDLEAQLQSDEREATDTPIVIQPASATETTQLTADSHPSYHTDGFN [L115R], for which the “effect of a mutation on the interaction” value is listed as “with no effect”.

The variants in the next test derive from B2. As to conditions: with agfg1_human AGFG1, P52594.
As for MADQRQRSLSTSGESLYHVLGLDKNATSDDIKKSYRKLALKYHPDKNPDNPEAADKFKEINNAHAILTDATKRNIYDKYGSLGLYVAEQFGEENVNTYFVLSSWWAKALFVFCGRLTCCYCCCCLCCCFNCCCGKCKPKAPEGEETEFYVSPEDLEAQLQSDEREATDTPIVIQPASATETTQLTADSHPSYHTDGFN [L115R], the “effect of a mutation on the interaction” value is on record as “with no effect”.
